Holding throughout (assay): SPR, antibody immobilised on GLC chip
A general note: In SPR one partner is held on a chip, and binding of the other changes the refractive index at the surface.

The target in assay [1] is T1, human SIRP-α v1 D1 domain (human, UniProt P78324 31-149).
T1 construct: also called human v1; human α v1
On the procedure:
(§1) All experiments were performed at 25° C. using a SPR-based ProteOn XPR36 biosensor (BioRad, Inc, Hercules, Calif.) equipped with GLC or NLC sensor chips. […] Purification was carried out by standard Protein A affinity column chromatography and eluted antibodies were stored in PBS buffer.
(§2) For the method using GLC chip, the analytes were injected and flowed over anti-SIRPα antibodies immobilized (˜1000 RUs) on GLC chips using Proteon™ Amine Coupling Kit. For the immobilization step, GLC chip was activated with EDAC/Sulpho-NHS 1:1 (Biorad) diluted 1/100 for 300 s at 25 μL/min. Anti-SIRPα antibodies were diluted to 80 nM concentration in 10 mM sodium acetate buffer pH 4.5 and immobilized to the chip at 30 μL/min for 50 s. Chip was inactivated with ethanolamine for 300 s at 25 μL/min. The analytes (e.g., SIRP-α from different species, SIRP-β, SIRP-γ) were injected in a “one-shot” kinetic mode at nominal concentrations of 100, 33, 11, 3.7, 1.2 and 0 nM. Association times were monitored for 90 s at 100 μL/min, and dissociation times were monitored for 1200 s. The surfaces were regenerated with a 2:1 v/v blend of Pierce IgG elution buffer/4M NaCl. […]

For the next assay, the target named is T2, human SIRPγ isoform 1 (human, UniProt Q9P1W8 29-147).
T2 construct: also called sirpg; sirp-g
On the procedure: as §1, §2

The target in assay [2] is T3, NOD mouse SIRP-α D1 domain (mouse (NOD strain)).
T3 chain: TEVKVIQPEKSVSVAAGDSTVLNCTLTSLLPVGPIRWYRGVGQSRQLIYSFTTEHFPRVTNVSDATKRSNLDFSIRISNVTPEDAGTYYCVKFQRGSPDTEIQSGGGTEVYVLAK
How it is done: as §1, §2

The target of assay [3] is T4, BALB/c mouse SIRP-α D1 domain (mouse (BALB/c strain)).
T4 chain: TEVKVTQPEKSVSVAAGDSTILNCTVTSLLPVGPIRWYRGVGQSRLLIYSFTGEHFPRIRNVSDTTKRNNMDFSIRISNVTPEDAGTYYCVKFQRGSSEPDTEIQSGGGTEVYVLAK
On the procedure: as §1, §2

For assay [4], the target named is T5, C57BL/6 mouse SIRP-α D1 domain (mouse (C57BL/6 strain), UniProt P97797 32-148).
T5 sequence: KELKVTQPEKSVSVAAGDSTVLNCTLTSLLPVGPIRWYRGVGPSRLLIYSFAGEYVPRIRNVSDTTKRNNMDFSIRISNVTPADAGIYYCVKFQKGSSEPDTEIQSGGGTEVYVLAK
How it is done:
as §1, §2

Assay [5] has as its target T6, human SIRP-α v2 D1 domain (human).
T6 construct: also called human v2; human α v2
How it is done: as §1, §2

The source of these data is patent US20210363269A1 (ALX ONCOLOGY, published 2021).

One may read the Kd as the concentration at which binding is half-saturated. A high value points to weaker binding.

T1 sequence (P78324 31-149 limits assumed): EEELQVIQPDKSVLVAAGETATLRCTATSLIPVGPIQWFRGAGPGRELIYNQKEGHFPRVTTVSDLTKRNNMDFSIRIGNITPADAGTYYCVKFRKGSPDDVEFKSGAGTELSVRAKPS
T6 sequence (chain, as listed by the source limits assumed): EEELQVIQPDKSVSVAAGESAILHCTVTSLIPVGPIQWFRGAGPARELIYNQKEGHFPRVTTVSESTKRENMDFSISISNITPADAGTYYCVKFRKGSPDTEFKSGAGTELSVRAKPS
T2 sequence (Q9P1W8 29-147 limits assumed): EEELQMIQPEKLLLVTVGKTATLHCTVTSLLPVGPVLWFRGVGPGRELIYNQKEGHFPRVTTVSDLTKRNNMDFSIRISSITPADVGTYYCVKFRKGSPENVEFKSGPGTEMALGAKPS

B1: antibody 136 variant MutRv_I2T/mut (antibody, human IgG1, V domains shown)
VH: EVQLVESGGGVVQPGRSLRLSCAASGFTFSSYDVNWVRQAPGKGLEWVSLISGSGEIIYYADSVKGRFTISRDNSKNTLYLQMNSLRAEDTAVYYCAKENNRYRFFDDWGQGTLVTVSS
VL: ETVLTQSPGTLSLSPGERATLSCRASQSVYTYLAWYQQKPGQAPRLLIYGASSRATGIPDRFSGSGSGTEFTLTISSLQSEDFAVYYCQQYYDRPPLTFGGGTKVEIK
notes: Human IgG1 with L234A/L235A/G237A/N297A; Labels are light chain/heavy chain
With B1, the Kd in assay [1] is 0.717 nM; in the assay with human SIRPγ isoform 1, 40 nM; in assay [2], 0.68 nM; in assay [3], 0.422 nM; in assay [4] it was 15.3 nM; in assay [5], 1.86 nM.

B2: antibody 136 variant MutRv_S12T/mut (antibody, human IgG1, V domains shown)
VH: EVQLVESGGGVVQPGRSLRLSCAASGFTFSSYDVNWVRQAPGKGLEWVSLISGSGEIIYYADSVKGRFTISRDNSKNTLYLQMNSLRAEDTAVYYCAKENNRYRFFDDWGQGTLVTVSS
VL: EIVLTQSPGTLTLSPGERATLSCRASQSVYTYLAWYQQKPGQAPRLLIYGASSRATGIPDRFSGSGSGTEFTLTISSLQSEDFAVYYCQQYYDRPPLTFGGGTKVEIK
notes: as for B1
In the case of B2, the Kd in assay [1] is 4.88 nM; in the assay with human SIRPγ isoform 1 it was 66.7 nM; in assay [2], 2.85 nM; in assay [3], 2.09 nM; in assay [4] it was 16.3 nM; in assay [5] it was 10.5 nM.

B3: antibody 136 variant MutRv_S22T/mut (antibody, human IgG1, V domains shown)
VH: EVQLVESGGGVVQPGRSLRLSCAASGFTFSSYDVNWVRQAPGKGLEWVSLISGSGEIIYYADSVKGRFTISRDNSKNTLYLQMNSLRAEDTAVYYCAKENNRYRFFDDWGQGTLVTVSS
VL: EIVLTQSPGTLSLSPGERATLTCRASQSVYTYLAWYQQKPGQAPRLLIYGASSRATGIPDRFSGSGSGTEFTLTISSLQSEDFAVYYCQQYYDRPPLTFGGGTKVEIK
notes: as for B1
In the case of B3, the Kd in assay [1] turned out to be 4.99 nM; in the assay with human SIRPγ isoform 1, 61.7 nM; in assay [2], 2.44 nM; in assay [3] it was 1.64 nM; in assay [4], 13.3 nM; in assay [5] it was 8.28 nM.

B4: antibody 136 variant MutRv_Q38E/mut (antibody, human IgG1, V domains shown)
VH: EVQLVESGGGVVQPGRSLRLSCAASGFTFSSYDVNWVRQAPGKGLEWVSLISGSGEIIYYADSVKGRFTISRDNSKNTLYLQMNSLRAEDTAVYYCAKENNRYRFFDDWGQGTLVTVSS
VL: EIVLTQSPGTLSLSPGERATLSCRASQSVYTYLAWYQEKPGQAPRLLIYGASSRATGIPDRFSGSGSGTEFTLTISSLQSEDFAVYYCQQYYDRPPLTFGGGTKVEIK
notes: as for B1
Turning to B4, the Kd turned out to be 6.18 nM in assay [1]; 19.3 nM in the assay with human SIRPγ isoform 1; 5.98 nM in assay [2]; 2.98 nM in assay [3]; 33.1 nM in assay [4]; 12.5 nM in assay [5].
